Test results as given in patent publication US20240316101.

Assays:
[1] = test system: PEG12-Tregitope peptide (Peg12-Val-Cit-Tregitope-Nle)
[2] = test system: PEG2-Tregitope peptide (KKKK-Peg2-Val-Cit-Tregitope-Nle)

Recombinant human Cathepsin B (catalog 953-CY of R&D Systems)
cleavage of the Val-Cit site, evaluated by mass spec [1]: For the PEG12 product, successful cleavage was demonstrated
cleavage of the Val-Cit site, evaluated by mass spec [2]: the PEG2 peptide did not have successful cleavage
